Test results taken from patent US6903203B2, “Monoclonal antibody to CEA, conjugates comprising said antibody and their therapeutic use” (AstraZeneca UK Ltd., priority 1996, dated 2005).

T1: CEA (Homo sapiens, UniProt P06731)
T1 sequence (P06731 35-676): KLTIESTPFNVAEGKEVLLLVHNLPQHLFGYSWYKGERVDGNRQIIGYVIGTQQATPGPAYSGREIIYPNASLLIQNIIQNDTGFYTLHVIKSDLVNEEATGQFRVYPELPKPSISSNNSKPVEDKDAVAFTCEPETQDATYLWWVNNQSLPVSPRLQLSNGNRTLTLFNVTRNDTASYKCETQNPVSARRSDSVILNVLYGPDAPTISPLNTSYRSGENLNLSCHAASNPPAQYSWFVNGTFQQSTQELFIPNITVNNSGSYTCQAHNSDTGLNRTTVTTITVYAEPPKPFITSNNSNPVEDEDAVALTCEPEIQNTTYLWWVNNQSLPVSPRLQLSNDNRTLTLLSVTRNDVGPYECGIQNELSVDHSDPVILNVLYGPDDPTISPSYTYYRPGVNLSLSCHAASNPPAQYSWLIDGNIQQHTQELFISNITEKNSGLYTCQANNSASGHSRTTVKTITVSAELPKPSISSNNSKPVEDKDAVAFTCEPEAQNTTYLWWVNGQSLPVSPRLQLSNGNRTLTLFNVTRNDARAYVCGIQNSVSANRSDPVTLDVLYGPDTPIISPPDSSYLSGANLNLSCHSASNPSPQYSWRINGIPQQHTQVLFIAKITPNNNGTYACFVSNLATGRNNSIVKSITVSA

B1: 806.077 antibody: novel murine anti-CEA monoclonal antibody from hybridoma 806.077, ECACC deposit no. 96022936 (antibody, V domains shown)
VH: EVQLQQSGAELVRSGASVKLSCTASGFNIKDNYMHWVKQRPEQGLEWIAWIDPENGDTEYAPKFRGKATLTADSSSNTAYLHLSSLTSEDTAVYYCHVLIYAGYLAMDYWGQGTSVAVSS
VL: DIELTQSPAIMSASPGEKVTITCSASSSVTYMHWFQQKPGTSPKLWIYSTSNLASGVPARFSGSGSGTSYSLTISRMEAEDAATYYCQQRSTYPLTFGAGTKLELKRA
B2: Example 75: [A248S,G251T,D253K]HCPB fused via (GGGS)3 linker to N-terminus of humanised 806.077 Fd (HuVH1-HuIgG3), with HuVK4-HuCK light chain (antibody)
heavy: HHGGEHFEGEKVFRVNVEDENHINIIRELASTTQIDFWKPDSVTQIKPHSTVDFRVKAEDTVTVENVLKQNELQYKVLISNLRNVVEAQFDSRVRATGHSYEKYNKWETIEAWTQQVATENPALISRSVIGTTFEGRAIYLLKVGKAGQNKPAIFMDCGFHAREWISPAFCQWFVREAVRTYGREIQVTELLDKLDFYVLPVLNIDGYIYTWTKSRFWRKTRSTHTGSSCIGTDPNRNFDAGWCEIGASRNPCDETYCGPAAESEKETKALADFIRNKLSSIKAYLTIHSYSQMMIYPYSYAYKLGENNAELNALAKATVKELASLHGTKYTYGPGATTIYPSAGTSKDWAYDQGIRYSFTFELRDTGRYGFLLPESQIRATCEETFLAIKYVASYVLEHLYGGGSGGGSGGGSEVQLQQSGPGLVRPSQTLSLTCTASGFNIKDNYMHWVRQPPGRGLEWIGWIDPENGDTEYAPKFRGRVTMLADTSKNQFSLRLSSVTAADTAVYYCHVLIYAGYLAMDYWGQGTLVTVSSASTKGPSVFPLAPCSRSTSGGTAALGCLVKDYFPEPVTVSWNSGALTSGVHTFPAVLQSSGLYSLSSVVTVPSSSLGTQTYTCNVNHKPSNTKVDKRVELKTPLGDTTHTCPRCPEPKSCDTPPPCPRCPEPKSCDTPPPCPRCPEPKSCDTPPPCPRCPAPELLGG
light: DIQMTQSPSSLSASVGDRVTITCSASSSVTYMHWYQQKPGKAPKLWIYSTSNLASGVPSRFSGSGSGTDYTFTISSLQPEDIATYYCQQRSTYPLTFGQGTKLEIKRTVAAPSVFIFPPSDEQLKSGTASVVCLLNNFYPREAKVQWKVDNALQSGNSQESVTEQDSKDSTYSLSSTLTLSKADYEKHKVYACEVTHQGLSSPVTKSFNRGEC

Key:
[1] = tested on: Ovary tumours; assay: Three-stage indirect immunohistology on frozen sections, ovary tumours; type: binding, human; settings: Ovary tumours (n=3), any tumour; 2 μg/ml
Description: (§1) To assess selectivity, many human normal and tumour tissues have been screened for reactivity with the antibody 806.077, using sensitive three-stage indirect immunohistology on acetone-fixed, frozen cryostat sections.
(§2) Immunohistology was carried out on sections of human tissue obtained either at resection surgery or at post mortem. To preserve optimal morphology and antigenicity, tissues were obtained as fresh as possible, cut into small pieces (about 0.5 cm^3) and flash frozen in liquid nitrogen prior to storage at −80° C. Sections of tissue (6μ) were cut on a cryostat, mounted on polylysine coated slides (e.g. blue TECHMATE™ slides, Dako) and fixed in ice-cold acetone for 2 minutes before being wrapped in foil and stored at −80° C.
(§3) Slides were allowed to defrost at room temperature before being unwrapped from the foil immediately prior to use. Each section was outlined with a diamond marker, and to each section was added either 100 μl 806.077 antibody diluted to 2 μg/ml in Tris-buffered Saline (TBS), or 100 μl CEA/NCA reactive control (A5B7 antibody) at 2 μg/ml in TBS, or 100 μl MOPC isotype control (Sigma Chemical Company, St. Louis, U.S.A., Cat. No. M 9269) at 2 μg/ml in TBS, or relevant positive control such as LP34 (Dako). All subsequent incubations were carried out at room temperature for 30 minutes in a humidified chamber: all wash steps were in TBS with 2 changes. […]

[2] = tested on: prostate tumours; assay: Three-stage indirect immunohistology on frozen sections, prostate tumours; type: binding, human; settings: prostate tumours (n=3), any tumour; 2 μg/ml
Description: as §1, §2, §3

[3] = tested on: Colon tumours; assay: Three-stage indirect immunohistology on frozen sections, colon tumours; type: binding, human; settings: tissue culture supernatant neat and diluted 1:10
Description: as §1, §2
(§4) Slides were allowed to defrost at room temperature before being unwrapped from the foil immediately prior to use. […] Louis, U.S.A., Cat. No. M 9269) at 2 μg/ml in TBS, or relevant positive control such as LP34 (Dako). All subsequent incubations were carried out at room temperature for 30 minutes in a humidified chamber: all wash steps were in TBS with 2 changes. After incubation, the slides were washed and 100 μl of second antibody reagent, comprising 1/50 rabbit anti-mouse immunoglobulins conjugated to horse radish peroxidase (Dako Patts) and ⅕ normal human serum (Sigma) in TBS was added to each section.
The slides were again incubated and washed in TBS. […]

[4] = tested on: Spleen (granulocyte/NCA reactivity); assay: Three-stage indirect immunohistology on frozen sections, normal spleen; type: binding, human
Description: as §1, §2, §3

[5] = tested on: Breast tumours; assay: Three-stage indirect immunohistology on frozen sections, breast tumours; type: binding, human; design: key: +++ (strong)=antibody binding to >75% tumour cells; ++ (moderate)=antibody binding to 50%-75% tumour cells; + (weak)=antibody binding to 25%-50% tumour cells; +/− (minimal)=non-focal antibody binding to a small area of tumour cells; −=no staining; settings: Breast tumours (n=6), score seen in 2/6 tumours; 2 μg/ml
Description: as §1, §2, §3

[6] = tested on: Lung (NCA reactivity); assay: Three-stage indirect immunohistology on frozen sections, normal lung; type: binding, human; design: key to degree of binding (staining score): +++ (strong)=antibody binding to >75% tumour cells; ++ (moderate)=antibody binding to 50%-75% tumour cells; + (weak)=antibody binding to 25%-50% tumour cells; +/− (minimal)=non-focal antibody binding to a small area of tumour cells; −=no staining
Description: as §1, §2, §4
The slides were again incubated and washed in TBS. A final detecting antibody, 100 μl swine anti-rabbit immunoglobulin conjugated to horse radish peroxidase ( 1/50 dilution with ⅕ normal human serum in TBS), was added to each section, incubated and washed thoroughly. DAB substrate (3,3′-diaminobenzidine tetrahydrochloride) was prepared using 1 DAB tablet (Sigma) with hydrogen peroxide (17 μl) in TBS (17 ml), and added dropwise through a fast filter paper (e.g. Whatman Number 4). After 3 minutes incubation the excess DAB was tapped off the slides and the slides were washed in TBS. […]

[7] = tested on: NSCLC tumours; assay: Three-stage indirect immunohistology on frozen sections, NSCLC tumours; type: binding, human; settings: NSCLC tumours (n=6), score seen in 1/6 tumours; 2 μg/ml
Description: as §1, §2, §3

[8] = tested on: Post mortem normal tissues; assay: Three-stage indirect immunohistology on frozen sections, post mortem normal tissues; type: binding, human; settings: cerebellum, mid-brain, cerebrum, smooth muscle, liver, kidney, aorta, stomach, heart; 2 μg/ml
Description: as §1, §2, §3

[9] = biological target: T1, CEA; assay: CEA binding ELISA; settings: media of NS0 clones
Description: For the CEA ELISA each well of a 96 well immunoplate (NUNC MAXISORB™) was coated with 50 ng CEA in 50 mM carbonate/bicarbonate coating buffer pH9.6 (buffer capsules—Sigma C3041) and incubated at 4° C. overnight. The plate was washed three times with PBS+0.05% Tween 20 and then blocked 150 μl per well of 1% BSA in PBS +0.05% Tween 20 for 1 hour at room temperature. The plate was washed as previously described, 100 μl of test sample added per well and incubated at room temperature for 2 hours. Again the plate was washed three times with PBS+0.05% Tween 20, 100 μl per well of a 1/500 dilution of HRPO-labelled goat anti-human kappa antibody (Sigma A 7164) was added, in 1% BSA in PBS-Tween 20 and incubated at room temperature on a rocking platform for at least 1 hour. The plate was washed as before and then once more with PBS. To detect binding add 100 μl per well developing solution (one capsule of phosphate-citrate buffer—Sigma P4922—dissolved in 100 mls H2O to which is added one 30 mg tablet o-phenylenediamine dihydrochloride—Sigma P8412) and incubated for up to 15 minutes. The reaction was stopped by adding 75 μl 2M H2SO4, and absorbance read at 490 nm.
Media from wells containing single viable clones was taken for testing and replaced with fresh media (containing G418). […]

Molecule | staining [1] | staining [2] | binding compared to A5B7 [3] | binding compared to A5B7 ([4]; normal spleen, tissue culture supernatant neat and diluted 1:10) | staining ([4]; spleen (n=6), any of the tissues tested, 2 μg/ml) | degree of binding (staining score) [5] | staining of normal lung tissues (summary statement) ([6]; 4/14 normal lung tissues tested) | degree of binding (staining score) ([6]; normal lung (n=14), score seen in 10/14 tissues, 2 μg/ml) | binding compared to A5B7 ([6]; normal lung, tissue culture supernatant neat and diluted 1:10) | degree of binding (staining score) [7] | reactivity [8] | antibody binding to CEA in an ELISA [9]
B1 | No staining | No staining | equivalent binding | much reduced binding | No staining | +/− | minimal staining | − | much reduced binding | ++ (++ (moderate)=antibody binding to 50%-75% tumour cells) | negative | 
B2 |  |  |  |  |  |  |  |  |  |  |  | positive
